The values below come from article PMC3466232, “FUS-NLS/Transportin 1 Complex Structure Provides Insights into the Nuclear Targeting Mechanism of FUS and the Implications in ALS” (PLoS ONE, 2012).

Common to all, as to conditions: both partners purified
Experiment [1] has as its target T1, human transportin 1 (Trn1, residues 1-890) (human, UniProt Q92973-2 1-890).
T1 construct: transportin 1 (Trn1), human, full-length, residues 1-890; numbers count on: the 890-residue form; Cloned in pGEX-4T-3 with a TEV site; clone was a gift from Y. M. Chook; source: E. coli BL21 (DE3), purified (glutathione Sepharose, TEV cleavage, HiTrap Q FF, Superdex 200)
T1 sequence (looked up): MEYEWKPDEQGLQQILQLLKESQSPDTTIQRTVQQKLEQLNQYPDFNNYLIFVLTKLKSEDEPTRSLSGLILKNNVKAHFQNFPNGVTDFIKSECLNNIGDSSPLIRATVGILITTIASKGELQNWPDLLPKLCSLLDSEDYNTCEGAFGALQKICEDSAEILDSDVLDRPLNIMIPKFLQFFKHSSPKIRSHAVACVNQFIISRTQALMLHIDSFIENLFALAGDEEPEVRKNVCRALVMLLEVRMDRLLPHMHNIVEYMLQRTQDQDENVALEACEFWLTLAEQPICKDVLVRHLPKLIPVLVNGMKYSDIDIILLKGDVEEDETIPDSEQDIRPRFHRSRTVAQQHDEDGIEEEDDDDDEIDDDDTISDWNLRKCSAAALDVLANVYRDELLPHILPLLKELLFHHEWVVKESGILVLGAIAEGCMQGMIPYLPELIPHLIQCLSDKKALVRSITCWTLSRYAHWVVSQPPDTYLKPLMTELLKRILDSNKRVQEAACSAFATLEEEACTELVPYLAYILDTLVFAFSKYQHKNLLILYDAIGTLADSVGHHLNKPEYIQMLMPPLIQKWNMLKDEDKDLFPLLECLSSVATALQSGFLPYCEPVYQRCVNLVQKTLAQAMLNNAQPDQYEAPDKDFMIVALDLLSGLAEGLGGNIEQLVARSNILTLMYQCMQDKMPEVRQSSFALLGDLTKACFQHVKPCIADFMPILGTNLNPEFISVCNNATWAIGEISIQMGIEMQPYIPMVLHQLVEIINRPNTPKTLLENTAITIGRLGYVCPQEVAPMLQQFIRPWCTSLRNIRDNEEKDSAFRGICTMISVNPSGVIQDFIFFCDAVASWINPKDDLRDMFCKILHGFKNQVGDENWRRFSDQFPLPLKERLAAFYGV
The experiment is described as follows: SPR; BIAcore 3000, 25°C; Trn1 immobilised on a CM5 chip by amine coupling (about 8600 RU); FUS-NLS injected at increasing concentrations, 50 µl/min; 20 mM HEPES pH 7.3, 110 mM potassium acetate, 2 mM magnesium acetate, 2 mM EGTA, 2 mM DTT, 10% glycerol, 0.005% Tween 20; 1:1 Langmuir fit.

In experiment [2] the target is T1, human transportin 1 (Trn1, residues …). The experiment is described as follows: SPR; BIAcore 3000, 25°C; Trn1 immobilised on a CM5 chip by amine coupling (about 8600 RU); same running buffer; kd too fast to be fit, KD from steady state equilibrium binding against the concentration of the injected protein.
Experiment [3] has the same target. The experiment is described as follows: SPR; BIAcore 3000, 25°C; Trn1 immobilised on a CM5 chip by amine coupling (about 8600 RU); FUS-NLS injected at increasing concentrations, 50 µl/min; 20 mM HEPES pH 7.3, 110 mM potassium acetate, 2 mM magnesium acetate, 2 mM EGTA, 2 mM DTT, 10% glycerol, 0.005% Tween 20; 1:1 Langmuir fit. This is another data set of the same source.

Positions count from the first letter of the chain named. Numbers in names are those of the source.

B1: nuclear localization sequence of human FUS (FUS-NLS, residues 495-526), wild type (domain or fragment, UniProt P35637 495-526, looked up)
chain: RGGRGGGDRGGFGPGKMDSRGEHRQDRRERPY
notes: Cloned in pGEX-6P-2; also called FUS-NLS(WT); WT; not shown: GST, N-terminal, cleaved
As to B1, in experiment [1], binding was characterised by a dissociation constant (Kd) of 1.7 nM, the koff turned out to be 0.0037 s⁻¹ and the kon came to 2.3e+06 M⁻¹ s⁻¹.

B2: FUS-NLS(E523S) (domain or fragment, human, UniProt P35637 495-526, looked up)
chain: B1 chain with E29S
notes: Designed from the structure; not found in familial ALS patients; not shown: GST, N-terminal, cleaved
For the molecule B2, in experiment [1], the Kd is 2 nM, the koff is 1.1e-05 s⁻¹ and the association rate constant (kon) was found to be 5500 M⁻¹ s⁻¹.

B3: FUS-NLS(H517P) (domain or fragment, human, UniProt P35637 495-526, looked up)
chain: B1 chain with H23P
notes: ALS-associated mutation found in patients; made by site-directed mutagenesis; not shown: GST, N-terminal, cleaved
In experiment [2], B3 showed a dissociation constant (Kd) of 140 nM.

B4: FUS-NLS(R524S) (domain or fragment, human, UniProt P35637 495-526, looked up)
chain: B1 chain with R30S
notes: as for B3
Turning to B4, in experiment [1], the affinity, expressed as Kd, was 10 nM; the dissociation rate constant (koff) came out at 0.058 s⁻¹; the kon came out at 5.6e+06 M⁻¹ s⁻¹.

B5: FUS-NLS(K510E) (domain or fragment, human, UniProt P35637 495-526, looked up)
chain: B1 chain with K16E
notes: as for B3
For B5, binding in experiment [2] was characterised by a dissociation constant (Kd) of 150 nM.

B6: FUS-NLS(G515C) (domain or fragment, human, UniProt P35637 495-526, looked up)
chain: B1 chain with G21C
notes: as for B3
In experiment [1], B6 had a Kd of 2.8 nM, a koff of 0.0051 s⁻¹ and an on-rate constant (kon) of 1.8e+06 M⁻¹ s⁻¹.

B7: FUS-NLS(R518G) (domain or fragment, human, UniProt P35637 495-526, looked up)
chain: B1 chain with R24G
notes: as for B3
In experiment [2], B7 gave a dissociation constant (Kd) of 150 nM.

B8: FUS-NLS(R518K) (domain or fragment, human, UniProt P35637 495-526, looked up)
chain: B1 chain with R24K
notes: as for B3
As for B8, in experiment [1], the Kd was found to be 13 nM, the koff turned out to be 0.078 s⁻¹ and the association rate constant (kon) worked out at 6e+06 M⁻¹ s⁻¹.

B9: FUS-NLS(Y526A) (domain or fragment, human, UniProt P35637 495-526, looked up)
chain: B1 chain with Y32A
notes: as for B2
In turn, B9 had a dissociation constant (Kd) in experiment [2] of 890 nM.

B10: FUS-NLS(P525L) (domain or fragment, human, UniProt P35637 495-526, looked up)
chain: B1 chain with P31L
notes: as for B3
Regarding B10, in experiment [2], the affinity, expressed as Kd, was 1200 nM.

B11: FUS-NLS(S513P) (domain or fragment, human, UniProt P35637 495-526, looked up)
chain: B1 chain with S19P
notes: as for B3
Consider B11, for which, in experiment [1], binding was characterised by a dissociation constant (Kd) of 2.4 nM, the koff came out at 0.023 s⁻¹ and the kon is 9.4e+06 M⁻¹ s⁻¹.

B12: FUS-NLS(R514G) (domain or fragment, human, UniProt P35637 495-526, looked up)
chain: B1 chain with R20G
notes: as for B3
B12 registered an equilibrium dissociation constant (Kd) in experiment [2] of 67 nM. This lies in the double-digit nanomolar range.

B13: FUS-NLS(G507D) (domain or fragment, human, UniProt P35637 495-526, looked up)
chain: B1 chain with G13D
notes: as for B3
As to B13, in experiment [1], the dissociation constant (Kd) came to 7.8 nM, the off-rate constant (koff) came out at 0.044 s⁻¹ and the kon was 5.7e+06 M⁻¹ s⁻¹.

B14: FUS-NLS(R521G) (domain or fragment, human, UniProt P35637 495-526, looked up)
chain: B1 chain with R27G
notes: as for B3
In experiment [1], B14 came in with a Kd of 25 nM, a koff of 0.0034 s⁻¹ and an on-rate constant (kon) of 140000 M⁻¹ s⁻¹.

B15: FUS-NLS(E523Y) (domain or fragment, human, UniProt P35637 495-526, looked up)
chain: B1 chain with E29Y
notes: as for B2
Take B15: the binding result in experiment [3] is “binds”.

B16: FUS-NLS(R522G) (domain or fragment, human, UniProt P35637 495-526, looked up)
chain: B1 chain with R28G
notes: as for B3
Molecule B16 displayed a Kd in experiment [2] of 350 nM.
